Measured values published in the nanobody polyreactivity screen of Harvey et al. (2022).

Assay: yeast display, Sf9 membrane polyspecificity reagent, FACS + sequencing; frameworks hold sequencing errors
Procedure, shortened: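 Using colony PCR, genes from sorted yeast display clones were amplified, then sequenced on MiSeq at 2 × 250 and filtered by CDR length. The clones had been stained with 10% biotinylated, detergent-solubilized Sf9 membrane reagent for 1 hour at 4 °C and sorted by FACS into low and high (top ~1%) gates on anti-HA and streptavidin fluorescence. Polyreactivity labels come from the gate of origin.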

Sequence | polyreactivity (PSR sort gate)
QVQLVESGGGLVQAGGSLRLSCAASGRIFPPNAMGWYRQAPGKERELVAGITSSGDTTYYADSVKGRFTISRDNAKNTDYLQMNSLKPEDTAVYYCAKDEVYADDRSALFDYWGQGTQVTVSS | low polyreactivity
QVQLVESGGGLVQAGGSLRLSCAASGRIFRGYAMGWYRQAPGKERELVAVISYSGTRTYYADSVKGRFTISRDNAKNTVYLQMNSLKPEDTAVYYCNARANGFKDGYWGQGTQVTVSS | high polyreactivity
QVQLVESGGGLVQAGGSLRLSCAASGIIFRPYAMGWYRQAPGTEMELVAAITGSGVSTYYADSVKGRFTISRDNAKNTVYLQMNSLKPEDTAVYYCAKRYNRGYHRYDYWGQGTQVTVSS | low polyreactivity
QVQIVESGGGLVQAGGSLSLTCAASGSIITSNDMGWYRQAPGKERELVAAISKSGGRTYYAYSVKGRFTISRENEKNTDYLQMNCLKQEYTAVYYCHAGIYGYGYNPSYDYWGQGTQVTLSS | high polyreactivity
QVQLVESGGGLVQAGGSLRLSCAASGFTFFVNAMGWYRQAPGKERELVAAISIRSGGRTYYADSVKGRFTISRDNAKNTVYLQMNSLKPEDTAVYYCAAESSRPEHTYHYYRFLFDYWGQGTQVTVSS | low polyreactivity
QVQLVESGGGLVQAGGSLRLSCAASGSIFAAYAMGWYRQAPGKERELVAAISDRGGSTYYADSVKGRFTISRDNAKNTVYLQMNSLKPEDTAVYYCATSVYDVRGGPFYYWGQGTQVTVSS | high polyreactivity
QVQLVESGGGLVQAGGSLRLSCAASGIIFDEYAMGWYRQAPGKEMELVAGITIGGSTNYADSVKGRLTISRDNAKNTVYLQMNSLKPEDTAVYYCDYLGQGTQVTVSS | low polyreactivity
QVQLVESGGGLVQAGGSLRLSCAASGSTFANYAMGWYRQAPGKERELVAAISRGGNTYYADSVKGRFTISRDNAKNTVYLQMNSLKPEDTAVYYCAARAPRFSRSSQPGDYWGQGTQVTVSS | high polyreactivity
QVQLQEGGGGLVQAGVSLRLSCAASGYISYGDVMGWNRQAPGEERELVASIGLDATTNYADSVKGRFTISRDNAKISVYLQMNSLKPEATAVYYCAADVGSGVLCGYWGQGTQMTVSS | high polyreactivity
QVQLVESGGGLVQAGGSLRLSCAASGSIFGLYAMGWYRQAPGKERELVAAINQSGGSTSYADSVKGRFTISRDNAKNTVYLQMNSLKPEDTAVYYCAAKRSWGATRRAYGRYDYWGQGTQVTVSS | low polyreactivity
KVQLVESGGGLVQAGGSLRLSCAASGLTFSVYAMGWYRQAPGKERELVAAITNSGGSTYYADSVKGRFTISRDNAKNTVYLQMNSLIPEDTAVYYCAARYSTYYSGPPGLHLDYYYWGQGTQVTVSS | low polyreactivity
QVQLVESGGGLVQAGGSLRLSCAGSGRIFRTYAMGWFRQAPGKEGEFVAGISRGGSTDYADSVKGRFTISRDNEKNTVYLQMNSLKPEDSAVYYCAAASLRYYSPRVRYPYYYWGQGTQVTVSS | high polyreactivity
QVQLVESGGGLVQAGGSLRLSCAASGSIFYYYAMGWYRPAPGKERELVAAINSSGGNTYYADSVKGRFTISRDNAKNTVYLQMNSLKPEDTAVYYCAAASRSTNYNYWGQGTQVTVSS | high polyreactivity
QVQLVESGGGLVQAGGSLRLSCAASGIIFVKNAMGWYRQAPGKERELVASISGSGGRTYYADSEKGRFTISRDNAKNTVYLQMNILKPEDTAVYYCNTLLAPHARKARRHDYWGQGTQVTVSS | low polyreactivity
QVQLVESGGGLVQAGGSLRLSCAASGRIFGRNTMGWYRQAAGKERELVASITFGGVSTYYADSVKGRFTISRDTEKNTVYLQMNSLKPEDTEVYYCAAVLINYEGYDSWGQGTQVTVSS | low polyreactivity
QVQLVESGGGLVQAGVSLRLSCAASGNIFEQYAMGSDRQAPGKERELVARISWRGGSTYYADSVKGRFTISRDNAKNTVYLQLNSLKPEDTAVYYCNALEVVYFGYYPSDYWGQGTQVTVSS | low polyreactivity
QVQLVESGGGLVQAGGSLRLSCAASGSTWWYDMGSYRQAPGKERELVASISSGDSTNYADSVKGRFTISRDNAKNTVYLQMNSLKPEDTAVYYCAADFNFGFVWGDDYDYWGQGTQVTVSS | low polyreactivity
QVQLVESGGGLVQAGGSLRLSCAASGFIFRDYAMGWYRQAPGKEREFVAAITSRGGSTYYADSVKGRFTISRDNAKNTVYLQMNSLKPEDTAVYYCNRYWWAYGEYDYWGQGTQVTVSS | high polyreactivity
QVQLVESGGGLVQAGGSLRLSCAASGRIFRYYAMGWYRQAPGKERELVAAISWSGGSTYYADSVKGRFTISRDNAKNTVYLQMNSLKPEDTAVYYCNAYIYRAVPYDYWGQGTQVTVSS | high polyreactivity
QVQLVESGGGLDQAGGSLRLTCADSGSIFIRNAMGWYRHAPGKESELVAAISGSGSSTYYADSVKGRFTISRDNAKNTVYLQMNSLKPEDTAVYYCNTDRTHSYQYGGYDYWGQGTQVTVSS | low polyreactivity
QVQLVESGGGLVHAGGSLRLSCAASGRIFLYYVMGWYRQAPGKERELVAAITSGGSTYYADSVKGRFTISRDNAKNTVYLQMNSLKPEDTAVYYCNKVSYYRNEYWGQGTQVTVSS | high polyreactivity

Sequence | polyreactivity (PSR sort gate)
QVQLVDSGGGLVQAGGSLRLSCAASGRTFTQNAKGWYRPAPGKERELVAAIRRGGSTNYADSVKWRFTISRDNAKNTVYLQMKSLKPEDTAVYYCATECYYGFSYRYDFWGLGTQVTVSS | high polyreactivity
QVQLVESGGGLVQAGGSLRLSCAASGITFPGNAMGWYRQAPGKERDLVAVISSGTSTNYADSVKGRFTISRDNAKNTVYLHMNSLKPEDTAVYYCAKATSSFYHYRYDYWGQGTQVTVSS | low polyreactivity
QVQLVESGGGLVQAGGSLRLSCAASGRIFKSYAMGWYRQAPGKERELVAAIRSGGSTYYADSVKGRFTISRDNAKYTVYLQMNSLKPEDTAVYYCNRVTRTWKVTYHYWGQGTQVTVSS | high polyreactivity
QVQLVESGGGLVQAGGRLRLTCAPSGTIIYQYAMGFDRHAPGKERELVAASSTTGGPTYYADSVKGRFTISRDNAKKTVYLQMNSLKPEDTAVYYCAAEKYYGYDYWGQGTQVTVSS | high polyreactivity
QVQLVESGGGFGQAGGSLRLSCAASGLIFRWYAMGWYRQAPGKERELVAAISWSGASTYYADSVKGRFTISRDNAKNTVYLQMNSLKPEDTAVYYCAADSAYWTYEYWGQGTQVTVSS | high polyreactivity
QVQLVESGGGLVQAGGSLRLSCAASGRIFTKYAMGWYRQAPGKERELVATITRNGGSTYYADSVKGRFTISRDNAKNTVYLQMNSLKPEDTAVYYCAADKRYKLDYWGQGTQVTVSS | high polyreactivity
QVQLVESGGGLVQAGGSLRLSCAASGSTFAYNDMGWYRQAPGKERELVADSRSGGNTNYADSVKGRFTISRDNAKNTVYLQMNSLKREDTAVYYCATDGYRIDVFHPDYRYDYWGHGTQVTVSS | low polyreactivity
QVQLVESGGGLVQAGGSLRLSCAASGSIFWYYAMGWYRQAPGKERELVASITSAGSTNYADSVKGRFTISRDNAKNTVYLQMNSLKPEDTAVYYCNTDDDSSSTGYYSWGQGTQVTVSS | low polyreactivity
QVQLVESGGGLVQAGGSLRLSCAASGSIFKYNPMGWDRQAPGKERELVAAITYRGASTYYADSVKGRFTISRDNAKNTVYLQMNSLKPEDTAVYYCNAKVRKSRFYYWGQGTQVTVSS | high polyreactivity
QVQLVESGGGLVQAGGSLRLSCAASGLTIRSYGMGWYRQAPGKERELVASITWSGGSTYYADSVKGRFTISRDNAKNTVYLQMNSLKPEDTAVYYCAASFDFQGYHYGYWGQGTQVTVSS | high polyreactivity
QVQLVESGGGLVQAGGSLRLSCAASGFNFWRYAMGWYRQAPGKERELVAVITWSGTRTYYADSVKGRFTISRDNAKNTVYLQMNSLKPEDTAVYYCAALYYGFRLTYGYDYWGQGTQVTVSS | high polyreactivity
QVQLVESGGGIVQAGGSLRISCAASGRIFSTYAMGWYRQAPGKERELVAAINKIGGSTYYADSVKGRFTISRDNAKNTVYLQMNSLKPEDTAVYYCAADAPYYPVRRYYYWGQGTQVTVSS | low polyreactivity
QVQLVESGGGLVQAGGSLRLSCAASGSIFTWYAMGWYRQAPGKERELVAAISEDGGSTYYADSVKGRFTISRDNAKNTVYLQMNSLKPEDTAVFYCATPVASVTGYDYWGQGTQVTVSS | low polyreactivity
QVQLVESGGGLVQAGGSLRLSCPASGSTFRYYAMAWYRQAPGKERELVAGISSSGGSTYYADSVKGRFTISRDNAKNTVYLQMNSLKPEDTAVYYCNAARGTSRSLAVFADYDYWGQGTQVTVSS | high polyreactivity
QVQLVESGGGLVQAGGSLRLSCAASGRIFIGNAMGWYRQAPGKERELVAAISKRGGSTYYADSVKGRFTISRDNAKNTVYLQMNSLKPVDTAVYYCAVDGYVGVADYEYDNWGQGTQVTVSS | low polyreactivity
QVQLVESGGGLVQAGGSLCLSCAASGRTFIRNAMGWYRPAPGKERELVAAINSGGITNYADSVKGRFTISRDNAKNTVYLQMNSLKPEDTALYYCNARQVLYGLYLRAYPYEYWGQGTQVTVSS | low polyreactivity
QVQLVESGGGLVQAGGSLRLSCAASGRIFEGYAMGWYRQAPGKEELVAAITSDASTYYADSVKGRFTISRDNAKNTVYLQMNSLNPEDTAVYYCNAYTRGLEYDYWGQGTQVTVSS | high polyreactivity
QVQLVESGGGLVQARGSLRLNSAASGRTFYQYVMGWYRQAPWKERELVAAIRSGGNTYYADSEKGRITISRDNAKYTVYLQMNSLKPEDTAVYYCAVQRGYYRFRLGLYCYDYWGQGTQVTVSS | high polyreactivity
QVHLVESGGGLVQAGGSLRLSCAASGSILVWYAMGWYRHAPGKERELVAAISQSGGRTYYADSVKGRFTISRDNAKNNVYLQMNSLKPEDTAVYYGAAFYTSYWGYDYDYWGQGTQVTVSS | low polyreactivity
QVQLVESGGGLVQAGGSLRLSCAASGYTFWDYTMGWYRQAPGKEREFVAAINWSGGSTYYADSVKGRFTISRDNAKKTVYLQMNSLKPEDTAVYYCAARRGGRRGYDYWGQGTQVTVSS | high polyreactivity
